Molecular target: human CC chemokine receptor CCR5 (human) (UniProt P51681)
Assay: cell-based or functional assay

B1: anti-CCR5 antibody with heavy chain variable domain SEQ ID NO: 6 and light chain variable domain SEQ ID NO: 9, mutated IgG1 (IgG1v2) constant region (antibody, name in EU numbering, V domains shown)
VH: QVQLQESGPGLVKPSQSLSITCTVSGFPLGAFGVHWVRQSPGKGPEWLGVIWKGGNTDYNAAFKSRLRITKDNSKSQVFFRMNSLQTDDTATYYCAKVNLADAMDYWGQGTTVTVSS
VL: DIQMTQSPASLSASVGETVTITCRASGNAHGYLAWYQQKPGKAPKLLIYNTKTLAEGVPSRFSGSGSGTQFSLKINSAQPEDFGNYYCQHHYDLPRTFGGGTKVEIKR
Work on B1 yielded an IC50, cell-cell fusion assay (gp160-expressing HeLa cells with CEM.NKR-CCR5-Luc cells, luciferase) of 0.108 µg/mL.

B2: anti-CCR5 antibody with heavy chain variable domain SEQ ID NO: 7 and light chain variable domain SEQ ID NO: 9, mutated IgG1 (IgG1v2) constant region (antibody, name in EU numbering, V domains shown)
VH: QVQLQESGPGLVKPSQSLSITCTVSGFPLGAFGVHWVRQSPGKGLEWLGVIWKGGNTDYNAAFKSRLRITKDNSKSQVFFRMNSLQTDDTATYYCAKVNLADAMDYWGQGTTVTVSS
VL: DIQMTQSPASLSASVGETVTITCRASGNAHGYLAWYQQKPGKAPKLLIYNTKTLAEGVPSRFSGSGSGTQFSLKINSAQPEDFGNYYCQHHYDLPRTFGGGTKVEIKR
In the case of B2, the IC50, cell-cell fusion assay (gp160-expressing HeLa cells with CEM.NKR-CCR5-Luc cells, luciferase) is reported as 0.046 µg/mL.

B3: anti-CCR5 antibody with heavy chain variable domain SEQ ID NO: 7 and light chain variable domain SEQ ID NO: 10, mutated IgG1 (IgG1v2) constant region (antibody, name in EU numbering, V domains shown)
VH: QVQLQESGPGLVKPSQSLSITCTVSGFPLGAFGVHWVRQSPGKGLEWLGVIWKGGNTDYNAAFKSRLRITKDNSKSQVFFRMNSLQTDDTATYYCAKVNLADAMDYWGQGTTVTVSS
VL: DIQMTQSPASLSASVGETVTITCRASGNAHGYLAWYQQKPGKAPKLLVYNTKTLAEGVPSRFSGSGSGTQFSLKINSAQPEDFGNYYCQHHYDLPRTFGGGTKVEIKR
Binder B3 has an IC50, cell-cell fusion assay (gp160-expressing HeLa cells with CEM.NKR-CCR5-Luc cells, luciferase) of 0.152 µg/mL.

B4: anti-CCR5 antibody with heavy chain variable domain SEQ ID NO: 8 and light chain variable domain SEQ ID NO: 9, mutated IgG1 (IgG1v2) constant region (antibody, name in EU numbering, V domains shown)
VH: QVQLQESGPGLVKPSQSLSITCTVSGFPLGAFGVHWVRQSPGKGLEWLGVIWKGGNTDYNAAFKSRLRITKDNSKSQVFFRMNSLQTDDTAIYYCAKVNLADAMDYWGQGTTVTVSS
VL: DIQMTQSPASLSASVGETVTITCRASGNAHGYLAWYQQKPGKAPKLLIYNTKTLAEGVPSRFSGSGSGTQFSLKINSAQPEDFGNYYCQHHYDLPRTFGGGTKVEIKR
Binder B4 has an IC50, cell-cell fusion assay (gp160-expressing HeLa cells with CEM.NKR-CCR5-Luc cells, luciferase) of 0.132 µg/mL.

B5: anti-CCR5 antibody with heavy chain variable domain SEQ ID NO: 6 and light chain variable domain SEQ ID NO: 10, mutated IgG1 (IgG1v2) constant region (antibody, name in EU numbering, V domains shown)
VH: QVQLQESGPGLVKPSQSLSITCTVSGFPLGAFGVHWVRQSPGKGPEWLGVIWKGGNTDYNAAFKSRLRITKDNSKSQVFFRMNSLQTDDTATYYCAKVNLADAMDYWGQGTTVTVSS
VL: DIQMTQSPASLSASVGETVTITCRASGNAHGYLAWYQQKPGKAPKLLVYNTKTLAEGVPSRFSGSGSGTQFSLKINSAQPEDFGNYYCQHHYDLPRTFGGGTKVEIKR
B5 showed an IC50, cell-cell fusion assay (gp160-expressing HeLa cells with CEM.NKR-CCR5-Luc cells, luciferase) of 0.399 µg/mL.

B6: anti-CCR5 antibody with heavy chain variable domain SEQ ID NO: 8 and light chain variable domain SEQ ID NO: 10, mutated IgG1 (IgG1v2) constant region (antibody, name in EU numbering, V domains shown)
VH: QVQLQESGPGLVKPSQSLSITCTVSGFPLGAFGVHWVRQSPGKGLEWLGVIWKGGNTDYNAAFKSRLRITKDNSKSQVFFRMNSLQTDDTAIYYCAKVNLADAMDYWGQGTTVTVSS
VL: DIQMTQSPASLSASVGETVTITCRASGNAHGYLAWYQQKPGKAPKLLVYNTKTLAEGVPSRFSGSGSGTQFSLKINSAQPEDFGNYYCQHHYDLPRTFGGGTKVEIKR
With B6 the IC50, cell-cell fusion assay (gp160-expressing HeLa cells with CEM.NKR-CCR5-Luc cells, luciferase) was 0.076 µg/mL.

From patent publication US20090110686A1
